The target in experiment [1] is α subunit of the oxygenase component of 3-nitrotoluene dioxygenase (3NTDO-ODS2) from Diaphorobacter sp. strain DS2 (Diaphorobacter sp. strain DS2). Description: crystal structure; oxygenase 3NTDO-ODS2 (α and β co-expressed and co-purified), hanging drop vapor diffusion at 277 K, 0.2M sodium citrate tribasic and 20% PEG 3350 pH 8.3; molecular replacement with 1NDO; 2.9 Å.

The target in experiment [2] is β subunit of the oxygenase component of 3-nitrotoluene dioxygenase (3NTDO-ODS2) from Diaphorobacter sp. strain DS2 (Diaphorobacter sp. strain DS2). Described as above.

From article PMC5407579 come the findings set out here.

“α subunit of the oxygenase component of 3-nitrotoluene dioxygenase (3NTDO-ODS2) from Diaphorobacter sp. strain DS2 (natural protein)” yielded a stoichiometry N in experiment [1] of 3.
For the substance “β subunit of the oxygenase component of 3-nitrotoluene dioxygenase (3NTDO-ODS2) from Diaphorobacter sp. strain DS2 (natural protein)”, the stoichiometry N in experiment [2] stood at 3.

In general, stoichiometry N refers to a count of units in the complex or per binding partner.
